B1: Membrane-associated guanylate kinase, WW and PDZ domain-containing protein 1, residues 352 to 401; numbered along this chain, Q96QZ7 (parent)
chain: TEELDSELELPAGWEKIEDPVYGIYYVDHINRKTQYENPVLEAKRKKQLE

± gives the uncertainty stated by the source.

The data set covers variants of B1. Nature of the data set: abundance fitness (aPCA) (normalised: wild type 0, dead -1); higher = more abundant; growth selection in yeast, the domain comes from the species named. The conditions noted are these: Homo sapiens.
On to L41W, for which the abundance fitness is -0.114 ± 0.042. Next, L41T: -0.058 ± 0.076; L41G: -0.094 ± 0.04. The result for L41M reads 0.03 ± 0.074.

L41Y: the abundance fitness is -0.021 ± 0.075. In the case of L41A, the abundance fitness is 0.038 ± 0.05. Next, L41S: -0.011 ± 0.055. Next, L41P: -0.128 ± 0.07; L41Q: 0.001 ± 0.044; L41F: 0.064 ± 0.087. Next, L41V: 0.001 ± 0.045. As for L41E, the abundance fitness is -0.053 ± 0.071. As for L41R, the abundance fitness is -0.039 ± 0.037. Take L41H: the abundance fitness was found to be 0.032 ± 0.044. The result for L41N reads -0.137 ± 0.12; that for L41K, -0.035 ± 0.078. The result for L41C reads -0.116 ± 0.075; that for L41I, -0.324 ± 0.11; that for V40W, -0.177 ± 0.053.

Turning to V40N, the abundance fitness is -0.038 ± 0.1. For the variant V40Y, the abundance fitness was -0.237 ± 0.086.

As for V40R, the abundance fitness is -0.099 ± 0.054. Next, V40S: -0.026 ± 0.061. V40P: the abundance fitness is -0.404 ± 0.099. As for V40M, the abundance fitness is -0.033 ± 0.05. The result for V40K reads -0.055 ± 0.041; that for V40I, -0.197 ± 0.087; that for V40T, 0.006 ± 0.08.

Take V40A: the abundance fitness is 0.068 ± 0.05.

For the variant V40G, the abundance fitness is -0.047 ± 0.053.

Consider V40L, for which the abundance fitness was -0.016 ± 0.038. The result for V40F reads -0.385 ± 0.1.

For V40E, the abundance fitness is -0.25 ± 0.073. The result for V40Q reads -0.385 ± 0.069; that for T34N, -0.237 ± 0.083. Next, T34M: -0.265 ± 0.068; T34I: -0.502 ± 0.076. Next, T34Q: -0.182 ± 0.072. For the variant T34F, the abundance fitness was -0.387 ± 0.079. The result for T34K reads -0.219 ± 0.088. Next, T34Y: -0.324 ± 0.089; T34L: -0.603 ± 0.079; T34W: -0.193 ± 0.048. T34R: the abundance fitness was -0.035 ± 0.05. Next, T34H: -0.407 ± 0.09; T34G: -0.453 ± 0.061.

Regarding T34E, the abundance fitness is -0.316 ± 0.083. The result for T34V reads -0.232 ± 0.045; that for T34S, -0.11 ± 0.048. With E42K, the abundance fitness is -0.505 ± 0.091. Next, E42Q: -0.222 ± 0.081; E42P: -0.361 ± 0.05; E42W: -0.26 ± 0.051. For the variant E42C, the abundance fitness was -0.297 ± 0.046. For the variant E42N, the abundance fitness is -0.285 ± 0.069. The result for E42L reads -0.231 ± 0.048; that for E42A, -0.225 ± 0.05.

E42Y: the abundance fitness is -0.366 ± 0.055.

For the variant E42I, the abundance fitness is -0.117 ± 0.087.

As to E42F, the abundance fitness is -0.535 ± 0.13.

For the variant E42H, the abundance fitness was -0.599 ± 0.17. Next, E42D: -0.192 ± 0.062.

E42G: the abundance fitness is -0.137 ± 0.038. The result for E42V reads -0.149 ± 0.043; that for E42T, -0.086 ± 0.042.

E42R: the abundance fitness was -0.565 ± 0.053. Next, N38R: -0.079 ± 0.04; N38L: -0.271 ± 0.044; N38M: -0.116 ± 0.064. The result for N38P reads -0.481 ± 0.1; that for N38F, -0.058 ± 0.062. Next, N38W: -0.138 ± 0.072. Take N38C: the abundance fitness was -0.747 ± 0.051. The result for N38I reads -0.61 ± 0.2. Next, N38Q: -0.387 ± 0.1; N38S: -0.066 ± 0.065.

Consider N38E, for which the abundance fitness is -0.254 ± 0.084. The result for N38T reads -0.341 ± 0.068; that for N38H, 0.171 ± 0.057; that for N38D, -0.158 ± 0.064.

Take N38K: the abundance fitness was -0.444 ± 0.1.

Take N38Y: the abundance fitness is -0.365 ± 0.097. On to N38A, for which the abundance fitness is -0.146 ± 0.059. Next, N38G: -0.45 ± 0.059; E37N: -0.005 ± 0.098; E37V: -0.286 ± 0.048. The result for E37G reads -0.213 ± 0.044; that for E37K, -0.282 ± 0.11. Next, E37Q: -0.176 ± 0.071; E37Y: -0.611 ± 0.089.

E37L: the abundance fitness was -0.213 ± 0.049. Next, E37C: -0.292 ± 0.051.

Regarding E37D, the abundance fitness was -0.151 ± 0.079. The result for E37R reads -0.401 ± 0.058; that for E37W, -0.47 ± 0.046; that for E37T, -0.177 ± 0.057.

Regarding E37S, the abundance fitness was -0.162 ± 0.042. The result for E37P reads -0.56 ± 0.087; that for E37H, -0.321 ± 0.11; that for E37F, -0.438 ± 0.054. The result for E37A reads -0.192 ± 0.053; that for E37M, -0.296 ± 0.07; that for Q35H, -0.588 ± 0.18.

With Q35T, the abundance fitness came to 0.009 ± 0.078. Consider Q35A, for which the abundance fitness was -0.26 ± 0.046. Next, Q35N: -0.516 ± 0.049. The result for Q35I reads -0.571 ± 0.2. Next, Q35G: -0.487 ± 0.041; Q35V: -0.188 ± 0.056. In the case of Q35R, the abundance fitness is -0.334 ± 0.051. Next, Q35C: -0.338 ± 0.095; Q35Y: -0.15 ± 0.15; Q35F: -0.68 ± 0.27. Next, Q35L: -0.423 ± 0.045; Q35W: -0.48 ± 0.055. The result for Q35E reads -0.373 ± 0.055. On to Q35D, for which the abundance fitness was -0.597 ± 0.11. The result for Q35M reads -0.18 ± 0.078; that for P39Y, -1.21 ± 0.23. Next, P39A: -0.379 ± 0.042; P39K: -0.857 ± 0.15.

Take P39E: the abundance fitness was -0.466 ± 0.057. The result for P39H reads -1.3 ± 0.28; that for P39S, -0.597 ± 0.069; that for P39V, -0.699 ± 0.062. The result for P39W reads -0.894 ± 0.072. Next, P39I: -1.04 ± 0.23; P39M: -0.714 ± 0.086; P39Q: -0.447 ± 0.087. Consider P39D, for which the abundance fitness was -0.314 ± 0.098.

Regarding P39F, the abundance fitness was -1 ± 0.17. Next, P39C: -0.817 ± 0.12; P39L: -0.615 ± 0.048. The result for P39R reads -0.648 ± 0.046; that for P39G, -0.393 ± 0.057. Next, Y36Q: -0.134 ± 0.049; Y36H: -0.093 ± 0.043.

For the variant Y36F, the abundance fitness was -0.308 ± 0.085. Next, Y36R: 0.059 ± 0.051; Y36S: -0.086 ± 0.059. Next, Y36E: -0.172 ± 0.041; Y36C: -0.463 ± 0.08; Y36L: -0.048 ± 0.063.

As to Y36T, the abundance fitness is -0.041 ± 0.078. Y36I: the abundance fitness is -0.185 ± 0.041. In the case of Y36P, the abundance fitness was -0.161 ± 0.046. Next, Y36K: -0.058 ± 0.048; Y36M: 0.096 ± 0.083; Y36D: -0.32 ± 0.069. The result for Y36A reads -0.102 ± 0.067; that for Y36N, -0.176 ± 0.063. Next, Y36V: -0.11 ± 0.059; Y36W: -0.093 ± 0.06; A43P: -0.184 ± 0.079. With A43I, the abundance fitness is -0.092 ± 0.088. The result for A43C reads -0.246 ± 0.078.

With A43R, the abundance fitness is -0.11 ± 0.042. Next, A43L: -0.012 ± 0.059. The result for A43Q reads -0.024 ± 0.047. Next, A43G: -0.137 ± 0.05.

Turning to A43F, the abundance fitness is -0.357 ± 0.1.

In the case of A43M, the abundance fitness is -0.044 ± 0.08. On to A43D, for which the abundance fitness was 0.003 ± 0.049. The result for A43E reads -0.011 ± 0.053; that for A43H, -0.161 ± 0.087.

For A43N, the abundance fitness was -0.014 ± 0.047. In the case of A43K, the abundance fitness is -0.236 ± 0.1.

These data come from the Human Domainome abundance scans (Beltran et al. 2025).
